The text below walks through data of the DeepSol protein solubility set.

This series in a line: soluble on expression in E. coli; label from the status in PepcDB or PDB records.
With “MAKSSERFESLRRDIDALARRLDVPSVLIMRSLPRHMRVEASAGRLEDTYPIGAEGRKSVHEDGAKPLYCERVVDRDAPLHVRDSRQETEWAGNEDEVEFGLSNYLGYPVHAPDGTPYGTVCVLDSRPRDYSAEERALLEELRRKVEALLAETVS”, the “soluble on expression in E. coli” value was “not soluble”.

On to “GSSGSSGMEAVLNELVSVEDLKNFERKFQSEQAAGSVSKSTQFEYAWCLVRSKYNEDIRRGIVLLEELLPKGSKEEQRDYVFYLAVGNYRLKEYEKALKYVRGLLQTEPQNNQAKELERLIDKAMKKSGPSSG”, for which the “soluble on expression in E. coli” value is on record as “soluble”.

“MGSDKIHHHHHHKLFAAHGVDKVRLTGGEPTIRKDIVHIVEGISSTPGIKEVGITTNGLVLQRFLPQLRDAGLTKINISIDSLDREKFAKMTRRDGFDKVWKAIELARGYYPKVKLNVVVLKHQNENEVVDFVNLTKDRNLDVRFIEFMPFGGNEFKNDNFIGYREMLNLIVDKYGDGVIRLSDSPNDTTKAYKIDGFQGQFGFITSMSDHFCNTCNRLRITADGNL”: the “soluble on expression in E. coli” value is listed as “not soluble”.

With “GSMIKLFSLKQQKKEEEKGSSKKASAAQLRIQKDINELNLPKTCDISFSDPDDLLNFKLVICPDEGFYKSGKFVFSFKVGQGYPHDPPKVKCETMVYHPNIDLEGNVALNILREDWKPVLTINSIIYGLQYLFLEPNPEDPLNKEAAEVLQNNRRLFEQNVQRSMRGGYIGSTYFERCLK”, the “soluble on expression in E. coli” value is given as “soluble”.

As for “SKEFFAPQRAGMKLRTFSDIDKYYTEQKKQEYHKEKVRVVAMAQVARERVRVAVNEHLNQKKYATQKLIEENKETIQNSLRQVWQNRFNYLEKARERKALFLKEKSQKASERLLVQNLNNERTLLTRGLLKIDRLEKNEAVLKEKSLIVKQKLKAEKYRKNLLKEMKKVRSQEIYKRHCEEKFVMDMIAFEKACERLQDAKTKVAIVKTNLDFKVPNGLIK”, the “soluble on expression in E. coli” value is “soluble”.

As for “MRIVAPVMPRHFDEAQAIDISKYEDVNLIEWRADFLPKDEIVAVAPAIFEKFAGKEIIFTLRTVQEGGNITLSSQEYVDIIKEINAIYNPDYIDFEYFTHKSVFQEMLDFPNLILSYHNFEETPENLMEAFSEMTKLAPRVVKIAVMPQSEQDVLDLMNYTRGFKTLNPEQEFATISMGKLGRLSRFAGDVIGSSWTYVSLDHVSGPGQVTLNDMKRIIEVLEMDISN”, the “soluble on expression in E. coli” value is “soluble”.

As for “EGGDFVVGMVTDSGDIDDKSFNQQVWEGISRFAQENNAKCKYVTASTDAEYVPSLSAFADENMGLVVACGSFLVEAVIETSARFPKQKFLVIDAVVQDRDNVVSAVFGQNEGSFLVGVAAALKAKEAGKSAVGFIVGMELGMMPLFEAGFEAGVKAVDPDIQVVVEVANTFSDPQKGQALAAKLYDSGVNVIFQVAGGTGNGVIKEARDRRLNGQDVWVIGVDRDQYMDGVYDGSKSVVLTSMVKRADVAAERISKMAYDGSFPGGQSIMFGLEDKAVGIPEENPNLSSAVMEKIRSFEEKIVSKEIVVPVRSARMMN”, the “soluble on expression in E. coli” value is “soluble”.

With “MSLNTVIADFTERAGTGRVLKAEPEAIQLAPEQTALIVVDMQNAYTSIGGYLDLAGFDVSKTKPVVENIQKAVTAAHAAGIQVIYFKNGWDNQYVEAGGAGSPNFHKSNALKTMRKQPELQGKLLAKGGWDFELIDELQPKSQDIVIEKPRYSGFFNTALDSMLRARGIRNLVFVGIATNVCVESTLRDGFFLEYFGVALDDACYQAGPVEMHRASMYNIKTFFGWVSDTEGHHHHHH”, the “soluble on expression in E. coli” value is reported as “not soluble”.

For “MKAARQQAIVDLLINHKSLTTEALATRLNVSKETIRRDLSELQTQGKVLRNHGRAKYIHRENQDSGDPFHIRLKSHYAHKADIAREALAWIEEGMTIALDASSTCWYLARQLPDIPIQVFTNSHPICQELGKRERIALISSGGQLERKYGCYVNPSLISQLKSLDIDLFIFSCEGIDGGGDLWDSNAINADFKSILLRRASQSLLLIDKSKFNRSGEARIGHLDDVTHIVSDAPQSLEHHHHHH”, the “soluble on expression in E. coli” value is reported as “not soluble”.

Take “MPMPFTRDDDYDSDPEVQAEKEMAKKDPIGFAIDSSSLTSMKKAAAAAAKDQVSTTPPNLVIGSNGGAGTIATVPRSKSQDEIVKKQKTAGQSKALKKQRSRGISGCSSRKYSGYDDEMDEDFGDDEDYDHYGGQEVFDEDEEDTFVAKK”: the “soluble on expression in E. coli” value is on record as “not soluble”.

Take “AAAAAAMTMMDMNFKYCHKIMKKHSKSFSYAFDLLPEDQRKAVWAIYAVCRKIDDSIDVYGDIQFLNQIKEDIQSIEKYPYEYHHFQSDRRIMMALQHVAQHKNIAFQSFYNLIDTVYKDQHFTMFETDAELFGYCYGVAGTVGEVLTPILSDHETHQTYDVARRLGESLQLINILRDVGEDFENERIYFSKQRLKQYEVDIAEVYQNGVNNHYIDLWEYYAAIAEKDFRDVMDQIKVFSIEAQPIIELAARIYIEILDEVRQANYTLHERVFVEKRKKAKLFHEINSKYHRI”: the “soluble on expression in E. coli” value is “soluble”.

On to “MSLVSGFSVTLGEATSSNPSYKSAVMDYFKAKTDKDLQSADIKIVTASEVNEVSRGVTGRVYSPSQILSCAMVDLSYSDGIKVSVDTSKIRVVTPEMYASALRSSGIDRGYVVVTSPVPASGEAALAGVLKSYEIAVGEQIPEEAKRVSVEEIYLQSRLVNETNATGDRVAELFDEVKNRTQSQNLQDPADIQRVVVDVSQQMNINLTETQVQQVADSVAASQRVQGSLTEFKQRLEGVSQQVGGSGILDQIYAFLQSIYNYIMGIASPEGHHHHHH”, for which the “soluble on expression in E. coli” value is “soluble”.

With “MEKLVAYKRMPLWNKQTMPEAVQQKHNTKVGTWGKITVLKGALKFIELTEEGEVLAEHLFEAGADNPMAQPQAWHRVEAATDDVEWYLEFYCKPEDYFAKKYNTNPVHSEVLEAMQTVKQGKALDLGCGQGRNSLFLAQQDFDVTAVDQNGLALEILQSIVEQEDLDMPVGLYDINSASIEQEYDFIVSTVVLMFLQADRIPAIIQNMQEKTSVGGYNLIVCAMDTEDYPCSVNFPFTFKEGELADYYKDWELVKYNENPGHLHRRDENGNRIQLRFATLLAKKIKLEHHHHHH”, the “soluble on expression in E. coli” value is “soluble”.

Consider “MQAQTVVHPSIKTKTTFAIVVDQKSYDEAKSEIDAYRTSIEKEGLGTYLLIDDWKRPEPIREQLVKLHENEKTPLEGCVFIGDIPIPMIRDAHHLSSAFKRSPKANWQKSSVPSDRYYDDFGLKFDYIKQDSLIPDYHYMTLRADSKQYISPDIYSARIRPLHLEGENRYQMLRDYLKKAVAEKAKQNAFDQLTMARGHGYNSEDPLAWSGEQIALREQLPQIFKSGNTVKFYDFNMRYPMKPLYLNEIQREGLDVMLFHHHGGPTMQYINGYENGSGINLSIENAKIFLRSKVPSYAKKHGREAAIKEYAKQYGVPESWCAEAFDEEKIKSDSIVNRNMDIYTEDIRLLTPNARFILFDACFNGSFHLDDNIVGSYIFNKGKTIATMGCTVNTIQDKWPDEFLGLLAAGMRIGQFTRFTCFLENHLIGDPTFHFTNNAGLDMDINQALVAQEGNVTFWKKQLNSPMADMQAMALRQLSMANYSGLVELLKKSYHESNYFVVRLEALRLLALNYPTEVADVLQTAMNDSYELIRRYAVEYVEKNCNPELLPAWIESYLLRGHENRHRFRIFSAINTFDHDMALNELKKQAADWSFYDSSYVNELLEYLPRQKKGLERDFALIDSPESTTKQIQSEISRFRNKPIAKAIEPLLNIIKNESQEEELRILAAETLGWYNLYYNKADIIKELNTFRTSNQKLMNEVTKTINRLKSQNR”, for which the “soluble on expression in E. coli” value was “not soluble”.

Consider “MGSDKIHHHHHHMTVLHSVDFFPSGNASVAIEPRLPQADFPEHHHDFHEIVIVEHGTGIHVFNGQPYTITGGTVCFVRDHDRHLYEHTDNLCLTNVLYRSPDRFQFLAGLNQLLPQELDGQYPSHWRVNHSVLQQVRQLVAQMEQQEGENDLPSTASREILFMQLLLLLRKSSLQENLENSASRLNLLLAWLEDHFADEVNWDAVADQFSLSLRTLHRQLKQQTGLTPQRYLNRLRLMKARHLLRHSEASVTDIAYRCGFSDSNHFSTLFRREFNWSPRDIRQGRDGFLQ”, for which the “soluble on expression in E. coli” value is on record as “not soluble”.

Regarding “MARLARLGEPFALATVVASSGSSPRKAGAKMLIRGDGSALGTVGGGHVEQDTLAAARASLAEGAPRTLEFVLTEEHGYACGGSMSVFIEPQGRRPLLVMFGAGHVGRAVTALAHGCGFRVIVVDERPEYAVPALLPGADEIVCVPVGAAFARLTLDRESFAVIATPGHVHDFDAVRGCLATEVGFIGLLGSRRKREALMKTLTEEGYEAGRQARVVTPVGLDIGAQTPEEIAVSIVGQLVKLRRQA”, the “soluble on expression in E. coli” value is on record as “not soluble”.

On to “MGNRKKKCGIVTFHSSHNYGSVLQAYAMVRVMQKMGLDAELIDFRHPRTTDMYEWRLWSTYKNWKWNLRELVLRGLFSFGKKREQVFSDFIENVLKKSKRVKDKNDIPDIYDILVCGSDQIWNPKASGENDPIYYLDFGTTTCKFSYAASSGSVRFGDENPELFKKYLQNLKSIGVRERFMQEYIKEELGLVSEINPDPTFLLNASEWSEIEKPYKGLPDNYLLIYTIKRPKETINFAHQVAVSLNLPTVQICNDRDLNALMHKDVDYRLMNVSPQQFLWLFHHASFIVTNTFHGNMFSVIYRKNFVHYGINSSDTRISTLHDEIRLKNKIVSSFEIDQRIIDYNLIEENVAYYCKCGLNFIQANINDD”, for which the “soluble on expression in E. coli” value is given as “not soluble”.

Consider “MPRPSAGSHHNDKLHFKKGDTVIVLSGKHKGQTGKVLLALPRDQKVVVEGVNVITKNVKPSMTNPQGGQEQRELALHASKVALVDPETGKATRVRKQIVDGKKVRVAVASGKTID”, for which the “soluble on expression in E. coli” value is reported as “soluble”.

Regarding “MNPITNIKNQNRMNERELSLGYAGDLKKSWHQTYKDSAWIYIGGLSYALSEGDVIAVFSQYGEVMNINLIRDKDTGKSKGFAFLCYKDQRSTILAVDNFNGISLHKRMIRVDHVEEYKVPKYKEDADDETKRLWEEGCAPKPVMREAAPMEVQEQRIKKAKEVLLDIGDVDEELLKKIKKDKKKAKKEKKREKKRAKKIRKLEKKAARDPDGDWNNKAKLIDKVVAEDDLYGENKHFDFGKKKEVEEVKHNPRPDFEKADWRDIEIWKVIREREKAEKAARGETSEAWGPEDHYVSKRYQGR”, the “soluble on expression in E. coli” value was “not soluble”.

For the sequence “MFEELKTFVAVVEYKNFTKAGEYLNLSQPSVSKHIKNLENYFKVVLINRSIKQKTIFITESGQILYKRAKEILNLLNITYHDVSQVSDAITGHLKIGASLTIGEYILPNFLALFSKKYPDIDVEVFIKNTSIVSSHVKDYILDIGLIEGTCSSPSFIQEYFFEDKMVLALPYKSHLLKDFSFDKLQNQKWIVREDGSGTRDYLDMFLSVKEIIPKSMMVFGSNYAVKESVRNNLGITIVSNLVTSLPVLNNELSVIELGSSYNRHFSYIFPKDITLSKAATIFIEELKIFSNLNSI”, the “soluble on expression in E. coli” value is listed as “not soluble”.

Turning to “MAHHHHHHMGIVGEYEILETLGTGAFSKVKLVRHLPTNVYFVAKIIQKSNQQVETDVRLEISILRRLRHRNIVQLIEILESSNNYYIILEPVLGGDVCSLVLSQEGGLAEDFVANLFFQLVAGLRACHQNGVAHRDLKPENLLLTGEKVLKISDFGLSRLHKQSNFHAEAEEYAHTLTGTLAYVAPEVLDGNYDAFKADIWSIGCILYVMLTGQFPFGPTTDACELGERIKDGRVCEMPKSVSENARELTMWLLSRDPASRPSLDEVATHAFLRQHVPAKNIMALTRSRQAKILAPDPSEFSSAIPEEKQVANS”, the “soluble on expression in E. coli” value is on record as “soluble”.

Turning to “MLARSARLLHSAELAANAIRAASGAPATAAAAEASFPSTDDVAAKTKKTGNRIKTFEIYRFNPEAPGAKPTVQKFDVDLDQCGTMILDALIKIKNEVDPTLTFRRSCREGICGSCAMNIGGQNTLACICKIDSDTSKSTKIYPLPHMFVVKDLVPDMNLFYAQYASIQPWIQKKTPLTLGEKQMHQSVAERDRLDGLYECILCACCSTSCPSYWWNADKYLGPAVLMQAYRWVIDSRDDYATERLHRMHDSFSAFKCHTIMNCTKTCPKHLNPAKAIGEIKSLLTGFTSKPAAEPSAF”, the “soluble on expression in E. coli” value is listed as “not soluble”.
